Results reported in article PMC7518877, “The prefusion structure of herpes simplex virus glycoprotein B” (Science Advances, 2020).

Molecular target: the molecule itself
Test: cryo-EM structure; electron cryo tomography and sub-volume averaging of gB H516P on purified extracellular vesicles; vesicles in 20 mM Hepes (pH 8), 150 mM NaCl; 46,067 sub-volumes, C3 symmetrised; ectodomain 9.0 Å; domains of the postfusion crystal structure fitted as rigid bodies and by MD-based flexible fitting

B1: HSV-1 glycoprotein B H516P, full-length, membrane-anchored, on extracellular vesicles (natural protein)
chain: not shown
notes: glycoprotein B (gB) of herpes simplex virus 1, full length with membrane anchor and cytoplasmic domain, gene in plasmid pEP98; Trimer embedded in the vesicle membrane; prefusion (compact) conformation; also called gB H516P; H516P gB variant; source: BHK-21 cells, transiently transfected; on extracellular vesicles harvested from the supernatant by differential centrifugation
Question: How did the “stoichiometry N” value turn out when B1 was run?
Answer: 3
